The results in this text go back to the RNAGym collection of RNA variant scans (doi:10.7554/elife.80360).

The chains are these.
B1: CPEB3 Ribozyme (parent)
chain: GGGGGCCACAGCAGAAGCGUUCACGUCGCGGCCCCUGUCAGAUUCUGGUGAAUCUGCGAAUUCUGCUGU

The data set covers variants of B1. In words: self-cleavage, relative activity (ratio to wild type); higher = more cleavage; co-transcriptional.
In the case of G25A U26G, the self-cleavage stood at 0.148.

On to G25A U26C, for which the self-cleavage came to 0.297.

As to U26C A52G, the self-cleavage amounted to 1.01.

U26C A52U: the self-cleavage is 0.989.

Consider U26C A52C, for which the self-cleavage is 0.995.

Regarding U26A G31A, the self-cleavage is 0.511.

In the case of U26A G56C, the self-cleavage worked out at 0.357.

As for U26A G56U, the self-cleavage was 0.752.

Consider G25U U69C, for which the self-cleavage worked out at 0.263.

For G25U U69G, the self-cleavage worked out at 0.183.

For G25A U67G, the self-cleavage is 0.266.

Take G25A U67C: the self-cleavage is 0.133.

On to G25U U38G, for which the self-cleavage is 0.205.

G25C C45U: the self-cleavage came to 0.141.

Turning to G25C C45G, the self-cleavage was determined as 0.147.

With U26A U55G, the self-cleavage was determined as 0.44.

Take U26A U55C: the self-cleavage was 0.712.

With U26A C63A, the self-cleavage was 0.51.

Regarding G25A U46A, the self-cleavage came to 0.267.

In the case of G25A U46C, the self-cleavage is 0.216.

As for G25A G48A, the self-cleavage turned out to be 0.208.

As for G25A G48U, the self-cleavage amounted to 0.236.

For the variant G25U C27G, the self-cleavage is 0.16.

U26A G48C: the self-cleavage turned out to be 0.882.

As for U26A G48A, the self-cleavage stood at 0.846.

In the case of G25A C34U, the self-cleavage was 0.185.

Turning to G25C A59U, the self-cleavage was 0.176.

As for G25C A59G, the self-cleavage is 0.169.

With G25C A59C, the self-cleavage was 0.193.

In the case of U26A C33G, the self-cleavage worked out at 0.395.

As for U26A C29G, the self-cleavage was found to be 0.307.

As to U26A A51U, the self-cleavage is 0.813.

As to U26A G47A, the self-cleavage was 0.88.

U26A G47U: the self-cleavage was 0.932.

In the case of G25A G30A, the self-cleavage amounted to 0.155.

For the variant G25A G30C, the self-cleavage turned out to be 0.219.

With U26A A40C, the self-cleavage worked out at 0.32.

Consider U26A A40G, for which the self-cleavage is 0.7.

As for G25U U61G, the self-cleavage came out at 0.149.

For U26A C27G, the self-cleavage came to 0.121.

Regarding U26A C27U, the self-cleavage came to 0.429.

Take G25C A40G: the self-cleavage is 0.158.

Turning to G25C A40U, the self-cleavage came out at 0.176.

Consider G25C A40C, for which the self-cleavage amounted to 0.173.

Take G25C G56A: the self-cleavage was found to be 0.143.

Take G25A G56U: the self-cleavage worked out at 0.2.

For the variant G25C C66G, the self-cleavage came out at 0.0932.

In the case of G25C C66A, the self-cleavage was 0.134.

For the variant G25C C66U, the self-cleavage came to 0.15.

On to G25U A42C, for which the self-cleavage worked out at 0.17.

For the variant G25U A42U, the self-cleavage amounted to 0.163.

Take G25C A60G: the self-cleavage turned out to be 0.207.

Consider G25C A60C, for which the self-cleavage was found to be 0.149.

For the variant G25U G37C, the self-cleavage amounted to 0.0933.

G25U C35A: the self-cleavage amounted to 0.155.

For the variant G25U C35G, the self-cleavage was 0.165.

For the variant G25U U44A, the self-cleavage was found to be 0.136.

Take G25U U44C: the self-cleavage stood at 0.105.

Take G25U U44G: the self-cleavage came to 0.146.

For G25U U64C, the self-cleavage came to 0.103.

Turning to G25U U64A, the self-cleavage was found to be 0.132.

On to U26A U62A, for which the self-cleavage stood at 0.671.

Regarding G25U G50C, the self-cleavage came to 0.189.

Take G25U G50A: the self-cleavage amounted to 0.144.

For G25U G50U, the self-cleavage is 0.151.

Regarding G25C G65C, the self-cleavage is 0.18.

Turning to G25C G65U, the self-cleavage is 0.151.

As for U26A U53G, the self-cleavage is 0.647.

U26A U53A: the self-cleavage was 0.806.

As to U26A U53C, the self-cleavage came out at 0.724.

Take G25U G30A: the self-cleavage was found to be 0.16.

Regarding G25U G30C, the self-cleavage is 0.14.

As for G25U G28C, the self-cleavage came to 0.159.

Take G25U G28A: the self-cleavage worked out at 0.141.

In the case of G25A U49G, the self-cleavage came to 0.207.

With G25A U49C, the self-cleavage amounted to 0.219.

For U26A G65A, the self-cleavage stood at 0.736.

Regarding G25U C54G, the self-cleavage came to 0.115.

Turning to G25U C54A, the self-cleavage was determined as 0.125.

For the variant G25U C54U, the self-cleavage was 0.121.

As for G25A G28C, the self-cleavage was determined as 0.131.

With G25A C63U, the self-cleavage was 0.166.

G25C U69C: the self-cleavage was 0.333.

As for G25U A59U, the self-cleavage was 0.199.

For the variant G25U A59C, the self-cleavage was 0.217.

Take G25C G50U: the self-cleavage is 0.216.

Turning to G25C G50A, the self-cleavage came out at 0.186.

Turning to G25U C66U, the self-cleavage was found to be 0.121.

As for G25U G47C, the self-cleavage worked out at 0.11.

In the case of G25U G41A, the self-cleavage was 0.112.

Regarding G25C U55C, the self-cleavage came to 0.107.

G25C U55A: the self-cleavage worked out at 0.107.

With G25C U55G, the self-cleavage was determined as 0.174.

As to G25U C39U, the self-cleavage was found to be 0.151.

Take G25U C39G: the self-cleavage was determined as 0.124.

Turning to U26A U38G, the self-cleavage was determined as 0.244.

On to U26A U38A, for which the self-cleavage is 0.423.

Regarding U26A U38C, the self-cleavage is 0.419.

Regarding U26A G50A, the self-cleavage was 0.871.

Regarding U26A G50C, the self-cleavage amounted to 0.95.

In the case of G25U C33A, the self-cleavage was 0.175.

Take G25U C33U: the self-cleavage worked out at 0.137.

As to G25U C33G, the self-cleavage turned out to be 0.128.

G25U A52C: the self-cleavage is 0.246.

Regarding G25U A52U, the self-cleavage worked out at 0.199.

As to G25U A52G, the self-cleavage came to 0.146.

For the variant G25A U44G, the self-cleavage is 0.11.

Take G25A U44A: the self-cleavage turned out to be 0.138.

As to G25C G58C, the self-cleavage came to 0.234.

Take U26A U61G: the self-cleavage was 0.559.

U26A U61C: the self-cleavage came to 0.403.

As for G25C U38C, the self-cleavage was 0.166.

Regarding G25C U38A, the self-cleavage is 0.176.

Turning to G25C U38G, the self-cleavage worked out at 0.187.

On to U26A C32A, for which the self-cleavage is 0.422.

U26A C32U: the self-cleavage was determined as 0.869.

As to U26A C32G, the self-cleavage came to 0.231.

For the variant G25C C29U, the self-cleavage came to 0.126.

As to G25C C29G, the self-cleavage was 0.148.

Turning to G25C G28U, the self-cleavage is 0.16.

As to G25C G28A, the self-cleavage turned out to be 0.14.

As to U26A G68A, the self-cleavage was determined as 0.941.

For the variant G25C A51C, the self-cleavage stood at 0.227.

Take G25C A51G: the self-cleavage is 0.203.

With G25C U36G, the self-cleavage came to 0.217.

On to G25U C34G, for which the self-cleavage amounted to 0.196.

For G25U C34U, the self-cleavage was 0.151.

For G25A C57U, the self-cleavage is 0.205.

In the case of G25A C57A, the self-cleavage was 0.223.

On to G25C U43G, for which the self-cleavage was 0.188.

Take G25C U43C: the self-cleavage was 0.164.

As for U26A U46A, the self-cleavage was determined as 0.906.

With U26A U46G, the self-cleavage turned out to be 0.895.

G25A C35U: the self-cleavage stood at 0.152.

For the variant G25A C35G, the self-cleavage is 0.18.

Turning to G25U C32G, the self-cleavage is 0.158.

Consider G25C C39G, for which the self-cleavage worked out at 0.164.

Consider G25C C39U, for which the self-cleavage stood at 0.192.

As for G25C C39A, the self-cleavage is 0.197.

Take G25A U38C: the self-cleavage is 0.123.

G25A U38A: the self-cleavage was 0.149.

With G25A U38G, the self-cleavage was determined as 0.153.

As to G25A U55C, the self-cleavage turned out to be 0.152.

In the case of G25A U55G, the self-cleavage stood at 0.235.

With U26A A59U, the self-cleavage was found to be 0.404.

On to U26A A59G, for which the self-cleavage was determined as 0.923.

As for G25U U67G, the self-cleavage came to 0.237.

On to G25U U67A, for which the self-cleavage is 0.145.

Regarding G25U U67C, the self-cleavage is 0.212.

For the variant G25C U67G, the self-cleavage amounted to 0.24.

Take G25C U67A: the self-cleavage is 0.129.

As for G25U A51G, the self-cleavage is 0.168.

Take G25U A51C: the self-cleavage was 0.212.

Regarding G25U A51U, the self-cleavage was found to be 0.152.

Take G25U C63U: the self-cleavage came out at 0.173.

Consider G25U C63A, for which the self-cleavage was found to be 0.129.

Take G25C C35U: the self-cleavage worked out at 0.177.

Regarding G25C C35A, the self-cleavage came to 0.141.

G25U U55A: the self-cleavage worked out at 0.154.

Take G25U U55G: the self-cleavage was 0.146.

On to G25C C34G, for which the self-cleavage was 0.14.

Consider G25C C34A, for which the self-cleavage was 0.197.

Consider G25A U69C, for which the self-cleavage came out at 0.36.

On to G25A U69A, for which the self-cleavage came out at 0.295.

For the variant G25U G31U, the self-cleavage came out at 0.182.

For the variant G25U G31A, the self-cleavage amounted to 0.163.

Take G25U G31C: the self-cleavage came out at 0.191.
